We go through eleven molecules from patent US12304939B2, “EGFR and C-met fibronectin type III domain binding molecules” (Janssen Biotech, Inc., priority 2012, dated 2025).

Assay [1] deals with NCI-H292 cells expressing human HGF. Briefly: Tumor efficacy study with four bispecific EGFR/c-Met molecules, H292-HGF xenografts. The format is in vivo, SCID Beige mice. The note with it: 25 mg/kg three times per week. On the procedure:
One week after implantation, mice were stratified into groups with equivalent tumor volumes (mean tumor volume=77.9+/−1.7 mm3). Mice were dosed three times per week with the bispecific molecules and tumor volumes were recorded twice weekly.

Assay [2] deals with H292 cells. In words: Inhibition of proliferation of HGF-induced H292 cells. The class given is cell-based, human. The note with it: bispecific molecules. The text has this:
Inhibition of tumor cell proliferation can be measured using standard methods and methods described herein.
The proliferation assay was completed using different combinations EGFR and c-Met binding FN3 domains either as a mixture or linked in a bispecific format. […] This confirmed that the avidity effect observed at the level of the receptors (FIG. 4 and FIG. 5) translates into an improvement in inhibiting cell signaling (Table 12) and cell proliferation (Table 13).
Inhibition of human tumor cell growth was assessed in standard attachment culture as described in Examples 3 or 6, or in low attachment conditions.

Usually IC50 stands for the concentration at which inhibition is half-maximal.

B1: ECB39: bispecific SEQ ID NO: 121: P53A1R5-17v2, (AP)5, P114AR7P94-A3, linked to albumin binding domain (protein)
chain: MLPAPKNLVVSEVTEDSARLSWADPHGFYDSFLIQYQESEKVGEAIVLTVPGSERSYDLTGLKPGTEYTVSIYGVHNVYKDTNMRGLPLSAIFTTAPAPAPAPAPLPAPKNLVVSRVTEDSARLSWTAPDAAFDSFWIRYFEFLGSGEAIVLTVPGSERSYDLTGLKPGTEYVVNIMGVKGGKISPPLSAIFTTAPAPAPAPAPLAEAKVLANRELDKYGVSDYYKNLINNAKTVEGVKALLDEILAALP
modifications: Bispecific EGFR/c-Met binding molecule
For the molecule B1, the “tumor growth (tumor growth inhibition, TGI)” value in assay [1] was “reduced tumor growth”; in assay [1] (listed as P53A1R5-17v2-P114AR7P94-A3), “showed the most efficacy”.

B2: ECB94: bispecific SEQ ID NO: 61: P54AR4-83v22, (AP)5, P114AR7P94-A3v22 (protein)
chain: MLPAPKNLVVSEVTEDSARLSWDDPWAFYESFLIQYQESEKVGEAIVLTVPGSERSYDLTGLKPGTEYTVSIYGVHNVYKDTNIRGLPLSAIFTTAPAPAPAPAPLPAPKNLVVSRVTEDSARLSWTAPDAAFDSFWIRYFEFLGSGEAIVLTVPGSERSYDLTGLKPGTEYVVNILGVKGGKISPPLSAIFTT
modifications: bispecific EGFR/cMet binding molecule
Turning to B2, in assay [2], the IC50 was found to be 29.6 nM.

B3: ECB95: bispecific SEQ ID NO: 62: P54AR4-83v22, (AP)5, P114AR9P121-A6v2 (protein)
chain: MLPAPKNLVVSEVTEDSARLSWDDPWAFYESFLIQYQESEKVGEAIVLTVPGSERSYDLTGLKPGTEYTVSIYGVHNVYKDTNIRGLPLSAIFTTAPAPAPAPAPLPAPKNLVVSRVTEDSARLSWTAPDAAFDSFWIRYFEFVGSGEAIVLTVPGSERSYDLTGLKPGTEYVVNILGVKGGSISPPLSAIFTT
modifications: bispecific EGFR/cMet binding molecule
Regarding B3, in assay [2], the IC50 was determined as 383 nM.

B4: ECB97: bispecific SEQ ID NO: 64: P54AR4-83v22, (AP)5, P114AR7P95-C5v2 (protein)
chain: MLPAPKNLVVSEVTEDSARLSWDDPWAFYESFLIQYQESEKVGEAIVLTVPGSERSYDLTGLKPGTEYTVSIYGVHNVYKDTNIRGLPLSAIFTTAPAPAPAPAPLPAPKNLVVSRVTEDSARLSWTAPDAAFDSFWIRYFEFLGSGEAIVLTVPGSERSYDLTGLKPGTEYVVNILSVKGGSISPPLSAIFTT
modifications: bispecific EGFR/cMet binding molecule
B4: the IC50 in assay [2] was 31 nM.

B5: ECB106: bispecific SEQ ID NO: 65: P54AR4-83v23, (AP)5, P114AR7P94-A3v22 (protein)
chain: MLPAPKNLVVSEVTEDSARLSWDDPHAFYESFLIQYQESEKVGEAIVLTVPGSERSYDLTGLKPGTEYTVSIYGVHNVYKDTNIRGLPLSAIFTTAPAPAPAPAPLPAPKNLVVSRVTEDSARLSWTAPDAAFDSFWIRYFEFLGSGEAIVLTVPGSERSYDLTGLKPGTEYVVNILGVKGGKISPPLSAIFTT
modifications: bispecific EGFR/cMet binding molecule
On to B5, for which the concentration for half-maximal inhibition (IC50) in assay [2] was found to be 484 nM.

B6: ECB96: bispecific SEQ ID NO: 63: P54AR4-83v22, (AP)5, P114AR9P122-A7v2 (protein)
chain: MLPAPKNLVVSEVTEDSARLSWDDPWAFYESFLIQYQESEKVGEAIVLTVPGSERSYDLTGLKPGTEYTVSIYGVHNVYKDTNIRGLPLSAIFTTAPAPAPAPAPLPAPKNLVVSRVTEDSARLSWTAPDAAFDSFWIRYFEFVSKGDAIVLTVPGSERSYDLTGLKPGTEYVVNILGVKGGSISPPLSAIFTT
modifications: bispecific EGFR/cMet binding molecule
In the case of B6, the IC50 in assay [2] came out at 9480 nM.

B7: ECB108: bispecific SEQ ID NO: 67: P54AR4-83v23, (AP)5, P114AR9P122-A7v2 (protein)
chain: MLPAPKNLVVSEVTEDSARLSWDDPHAFYESFLIQYQESEKVGEAIVLTVPGSERSYDLTGLKPGTEYTVSIYGVHNVYKDTNIRGLPLSAIFTTAPAPAPAPAPLPAPKNLVVSRVTEDSARLSWTAPDAAFDSFWIRYFEFVSKGDAIVLTVPGSERSYDLTGLKPGTEYVVNILGVKGGSISPPLSAIFTT
modifications: bispecific EGFR/cMet binding molecule
For B7, the concentration for half-maximal inhibition (IC50) in assay [2] was 11400 nM.

B8: ECB109: bispecific SEQ ID NO: 68: P54AR4-83v23, (AP)5, P114AR7P95-C5v2 (protein)
chain: MLPAPKNLVVSEVTEDSARLSWDDPHAFYESFLIQYQESEKVGEAIVLTVPGSERSYDLTGLKPGTEYTVSIYGVHNVYKDTNIRGLPLSAIFTTAPAPAPAPAPLPAPKNLVVSRVTEDSARLSWTAPDAAFDSFWIRYFEFLGSGEAIVLTVPGSERSYDLTGLKPGTEYVVNILSVKGGSISPPLSAIFTT
modifications: bispecific EGFR/cMet binding molecule
With B8, in assay [2], the concentration for half-maximal inhibition (IC50) was found to be 574 nM.

B9: ECB107: bispecific SEQ ID NO: 66: P54AR4-83v23, (AP)5, P114AR9P121-A6v2 (protein)
chain: MLPAPKNLVVSEVTEDSARLSWDDPHAFYESFLIQYQESEKVGEAIVLTVPGSERSYDLTGLKPGTEYTVSIYGVHNVYKDTNIRGLPLSAIFTTAPAPAPAPAPLPAPKNLVVSRVTEDSARLSWTAPDAAFDSFWIRYFEFVGSGEAIVLTVPGSERSYDLTGLKPGTEYVVNILGVKGGSISPPLSAIFTT
modifications: bispecific EGFR/cMet binding molecule
With B9, the IC50 in assay [2] came out at 2640 nM.

B10: ECB18: bispecific SEQ ID NO: 118: P54AR4-83v2, (AP)5, P114AR5P74-A5, linked to albumin binding domain (protein)
chain: MLPAPKNLVVSEVTEDSARLSWDDPWAFYESFLIQYQESEKVGEAIVLTVPGSERSYDLTGLKPGTEYTVSIYGVHNVYKDTNMRGLPLSAIFTTAPAPAPAPAPLPAPKNLVVSRVTEDSARLSWTAPDAAFDSFWIRYDEVVVGGEAIVLTVPGSERSYDLTGLKPGTEYYVNILGVKGGSISVPLSAIFTTAPAPAPAPAPLAEAKVLANRELDKYGVSDYYKNLINNAKTVEGVKALLDEILAALP
modifications: Bispecific EGFR/c-Met binding molecule
Take B10: the figures for the “tumor growth (tumor growth inhibition, TGI)” value in assay [1] and in assay [1] (listed as P54AR4-83v2-P114AR5P74-A5) were “reduced tumor growth” and “delay in tumor growth”, respectively.

B11: ECB28: bispecific SEQ ID NO: 119: P53A1R5-17v2, (AP)5, P114AR5P74-A5, linked to albumin binding domain (protein)
chain: MLPAPKNLVVSEVTEDSARLSWADPHGFYDSFLIQYQESEKVGEAIVLTVPGSERSYDLTGLKPGTEYTVSIYGVHNVYKDTNMRGLPLSAIFTTAPAPAPAPAPLPAPKNLVVSRVTEDSARLSWTAPDAAFDSFWIRYDEVVVGGEAIVLTVPGSERSYDLTGLKPGTEYYVNILGVKGGSISVPLSAIFTTAPAPAPAPAPLAEAKVLANRELDKYGVSDYYKNLINNAKTVEGVKALLDEILAALP
modifications: Bispecific EGFR/c-Met binding molecule
As for B11, in assay [1], the “tumor growth (tumor growth inhibition, TGI)” value was “reduced tumor growth”.
